Target: RFP-Hrs (UniProt O14964)
Sequence of UniProt O14964 (O14964 whole entry): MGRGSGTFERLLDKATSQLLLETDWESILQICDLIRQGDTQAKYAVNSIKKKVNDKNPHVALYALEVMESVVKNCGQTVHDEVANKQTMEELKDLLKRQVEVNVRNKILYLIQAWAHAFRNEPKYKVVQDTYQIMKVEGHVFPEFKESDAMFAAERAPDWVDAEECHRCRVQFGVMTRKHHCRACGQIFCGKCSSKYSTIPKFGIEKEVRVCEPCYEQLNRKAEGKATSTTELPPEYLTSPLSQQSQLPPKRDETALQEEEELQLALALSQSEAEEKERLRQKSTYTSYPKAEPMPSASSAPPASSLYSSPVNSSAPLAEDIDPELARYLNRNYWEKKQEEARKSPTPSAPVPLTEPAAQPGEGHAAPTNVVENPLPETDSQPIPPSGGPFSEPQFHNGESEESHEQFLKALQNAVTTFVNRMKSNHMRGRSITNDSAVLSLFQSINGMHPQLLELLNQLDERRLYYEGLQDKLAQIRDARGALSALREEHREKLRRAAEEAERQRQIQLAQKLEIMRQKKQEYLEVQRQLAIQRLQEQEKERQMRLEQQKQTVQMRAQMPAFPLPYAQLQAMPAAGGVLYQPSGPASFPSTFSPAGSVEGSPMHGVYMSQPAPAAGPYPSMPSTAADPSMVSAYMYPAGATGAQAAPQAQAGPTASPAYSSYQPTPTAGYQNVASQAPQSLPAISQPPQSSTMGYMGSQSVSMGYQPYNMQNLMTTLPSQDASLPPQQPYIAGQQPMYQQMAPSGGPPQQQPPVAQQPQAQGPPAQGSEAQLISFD

B1: KIF13B-FRB-Myc (pBa-FRB-3myc-KIF13B tail 442–1826) (domain or fragment)
chain: KVGDDKCFLVNLNADPALNELLVYYLKEHTLIGSANSQDIQLCGMGILPEHCIIDITSEGQVMLTPQKNTRTFVNGSSVSSPIQLHHGDRILWGNNHFFRLNLPKKKKKAEREDEDQDPSMKNENSSEQLDVDGDSSSEVSSEVNFNYEYAQMEVTMKALGSNDPMQSILNSLEQQHEEEKRSALERQRLMYEHELEQLRRRLSPEKQNCRSMDRFSFHSPSAQQRLRQWAEEREATLNNSLMRLREQIVKANLLVREANYIAEELDKRTEYKVTLQIPASSLDANRKRGSLLSEPAIQVRRKGKGKQIWSLEKLDNRLLDMRDLYQEWKECEEDNPVIRSYFKRADPFYDEQENHSLIGVANVFLESLFYDVKLQYAVPIINQKGEVAGRLHVEVMRLSGDVGERIAGGDEVAEVSFEKETQENKLVCMVKILQATGLPQHLSHFVFCKYSFWDQQEPVIVAPEVDTSSSSVSKEPHCMVVFDHCNEFSVNITEDFIEHLSEGALAIEVYGHKINDPRKNPALWDLGIIQAKTRSLRDRWSEVTRKLEFWVQILEQNENGEYCPVEVISAKDVPTGGIFQLRQGQSRRVQVEVKSVQESGTLPLMEECILSVGIGCVKVRPLRAPRTHETFHEEEEDMDSYQDRDLERLRRKWLNALTKRQEYLDQQLQKLVSKRDKTEDDADREAQLLEMRLTLTEERNAVMVPSAGSGIPGAPAEWTPVPGMETHIPVIFLDLNADDFSSQDNLDDPEAGGWDATLTGEEEEEFFELQIVKQHDGEVKAEASWDSAVHGCPQLSRGTPVDERLFLIVRVTVQLSHPADMQLVLRKRICVNVHGRQGFAQSLLKKMSHRSSIPGCGVTFEIVSNIPEDAQGVEEREALARMAANVENPASADSEAYIEKYLRSVLAVENLLTLDRLRQEVAVKEQLTGKGKLSRRSISSPNVNRLSGSRQDLIPSYSLGSNKGRWESQQDVSQTTVSRGIAPAPALSVSPQNNHSPDPGLSNLAASYLNPVKSFVPQMPKLLKSLFPVRDEKRGKRPSPLAHQPVPRIMVQSASPDIRVTRMEEAQPEMGPDVLVQTMGAPALKICDKPAKVPSPPPVIAVTAVTPAPEAQDGPPSPLSEASSGYFSHSVSTATLSDALGPGLDAAAPPGSMPTAPEAEPEAPISHPPPPTAVPAEEPPGPQQLVSPGRERPDLEAPAPGSPFRVRRVRASELRSFSRMLAGDPGCSPGAEGNAPAPGAGGQALASDSEEADEVPEWLREGEFVTVGAHKTGVVRYVGPADFQEGTWVGVELDLPSGKNDGSIGGKQYFRCNPGYGLLVRPSRVRRATGPVRRRSTGLRLGAPEARRSATLSGSATNLASLTAALAKADRSHKNPENRKSWAS
B1 was tested, and the percentage of transfected N2a cells exhibiting rapalog-induced Hrs recruitment to the centrosome/centriole (transport assay with BicD2-GFP-FKBP, kinesin tail-FRB-Myc and linker AP21967) was 13%.

From paper PMC9152131
